Experimental data published in US20260201046A1 (BIO RAD LABORATORIES, published 2026).

Target: T1, recombinant mouse sIL-6Ra (20-357) (mouse, UniProt P22272 20-357)
T1 construct: range 20-357; The CD33 part of the plasmid name is not explained; also called recombinant sIL-6Ra; recombinant soluble IL-6Ra
T1 sequence: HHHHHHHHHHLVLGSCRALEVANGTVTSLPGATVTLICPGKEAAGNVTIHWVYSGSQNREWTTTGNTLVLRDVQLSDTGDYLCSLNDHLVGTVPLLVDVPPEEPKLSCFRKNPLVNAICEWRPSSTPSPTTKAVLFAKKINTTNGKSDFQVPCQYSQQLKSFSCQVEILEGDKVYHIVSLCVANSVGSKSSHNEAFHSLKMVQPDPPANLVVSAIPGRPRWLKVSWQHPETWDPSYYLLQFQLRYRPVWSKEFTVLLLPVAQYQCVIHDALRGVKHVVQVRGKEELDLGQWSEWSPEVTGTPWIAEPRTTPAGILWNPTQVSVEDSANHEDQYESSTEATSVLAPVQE
Assay: SPR (Biacore), sIL-6Ra (20-357) amine-coupled to CM5 chip, antibody as analyte, 1:1 Langmuir fit
Protocol: The antigen-antibody affinity of four antibodies (rAb #22, rAb #52, rAb #62, a rat mAb RB01) were determined by an analysis service employing a surface plasmon resonance technology (Beijing Xtalbio Ltd. Co). It started with a directly immobilization of recombinant mouse sIL-6Ra (20-357) on a CM5 S sensor chip using Biacore® S200 machine. Approximately 27.8 resonance units (RU) of the sIL-6Ra (20-357) were immobilized at 25° C. with an amine coupling kit following the standard amine coupling procedure. The remaining active sites on the sensor chip were blocked with 1 M ethanolamine-HCl solution, pH 8.5 at a flow rate of 10 μL/min for 7 min, to finally reach 27.8 RU. The flow cells were washed with the injection of HBS-EP running buffer at 30 μL/min. For each antibody, a 2-fold serial dilution (0, 0.39 nM-200 nM) was injected at 15° C. to a channel with a flow rate of 30 μL/min for 120s and dissociation was followed for 720s. The curves were locally fitted with Biacore®8K analysis software (BIAevaluation) using a 1:1 Langmuir binding model.

B1: rAb #52 (antibody, V domains shown)
VH: QSLEESGGDLVKPGASLTLACTASGFSFSSGYYMCWVRQAPGKGLEWIGCIYTGSDTTYYASWAKGRFTISETSSTAATLQMTSLTAADTATYFCARDLGSRGNLWGPGTLVTVSS
VL: DIVMTQTPSSVSAAVGDTVTINCQASENIYSFLTWYQQKPGQRPKLLIYRASTLASGVPSRFKGSGSGTDFTLTISDLECADAATYYCQRNAYSSWAFGGGTEVVVK
notes: also called Antibody 52; recombinant rabbit monoclonal antibody from fusion clone #52
With B1 the Kd was 9.43 pM.
